Source: the DeepSol protein solubility set

Assay: soluble on expression in E. coli; label from the status in PepcDB or PDB records

Soluble on expression in E. coli, not soluble:
MAHHHHHHMYVFRFHISSFHSFLVNFLQPSRGVGEPSRLLDHLETHPSYMRRVTSTAVHRTVSSVLSPALLPSFNGTLLLSVCFASCSAAPVRNLYKRLGLDHKATSEEVKAAYRQRALECHPDVVDDNRKAQAEVDFRAVSEAYDVLIDPQKRKEHDKALGLERTVPPAKKQQEGEGVGCDSKGSFNRGVTRPRNRKPFVRGDADRNFREAFHGMSLDQVLFRERLRQRRMQKQMEEKAKEGDDGSPAGREESIRRVAAAAAERFAEKVRRQYGPGMLRHARVYTSLSRDPQPPPSDYMPFRPFHGWTVPNGVRTPPEPTLGPTAKVEDVKDVQLAEPAVGDASHQRKLPKHFPVVQAPDGSSLLREEAIACMERERRLPHNMGKLYSYHRPY
MGSDKIHHHHHHQDGPLRIEITDGVIEPLPFAVPDFIADTPAAAQYATDIARVIAQDLVGSGLFREIPKVAYISPYTDFDAEVNFTDWKAINAQALIAGAVSLSGDRITVRFRGYDVFAGQELGAGLQLSGTTDGWRRIAHKVADTIYSRLTGEGGYFDSRVVFVSETGPKNDRKKRLAIMDYDGANVQYLTNSDAIVLAPRFSPTGDRVLYTSYESGFPQIHVLDVGRVQRRVLSAGNGSMSFAPRFAPNGQTIVYSQSQGGNTDLFSMDINSGNPQRLTSAPSIETAPSFSPDGSQIVFESDRSGTSQLYVMSASGGEAKRISFGQGRYGTPVWSPRGDYIAFTKQNAGRFHIGVMRTDGSEERLLTASFLDEGPTWSPNGRVIMFTRETQGASGQARLYSVDISGRNLKPVKTPDGASDPSWSPLQN
MAGDPMYRVGIDVGGTNTDAVVLQDKTVLAGVKASTTEDVTSGVIEALEKVIDASGIDRARIGAVMIGTTHFTNAVIERRHMDEVAAIRIGLPSGAGLPPMVDWPDDLKEIVGNHGYQVRGGYEFDGREISPLDEDEIVRIAADIRAKALKAAAVTCVFSGINDAMEVRAKEILQDRCPGLPVVMSKDIGRHGLLARESAAIMNASLLSLADRTVAAFGEALKAAGITCPFYITQNDGTLMAADVVRGFPVLTFASGPTNSMRGAAFLTGLKDAVVVDVGGTTSDVGSLSHGFPRQASTTVDIGGVRTNFRMPDVFSIGLGGGSMVVNGDHGLTVGPKSVGYRVRRDALCFGGSTLTATDIAVASGKADVGEKALVSSLDKRLVDAAVNKINDMLEACVERSRISSSPVPVIAVGGGSILMPDRIGNLDVIRPENFAVANAVGAAIAQISGETDRVFSLIDGRTRESALAEAEAEAREKAIAAGAIAETLEVIEREDMPLAYLPGNATRIHVKVVGEMGANHGAAALEHHHHHH
EVDPFVELHVRAMGLAEVYGKMNGYMPMNYEYNVGRVETGIAKALGIKPSRDYEGIVAESQKLAAKAPPRPPVLCPGCPHSASFYAIRRVVDELGDAALPS
MSLSDINNMAYGISDMLGSIDNLAMFDLVVPHFRGKENECLFGMFGRATTTLQGGKIAKHVQEIFAETLTAHLHKLEPGEEPSEALRRTFLWGDRKAFEFFSGKLQLEKERKPSWTSFASFDSMFRGWTPGVNSVLRTGASGAVVYLVDKVLHVGSIGDTLVVLSRKGDAELLSKRHDPTDREESARIRKAEAWVSTKGFVNDDKDLDISRAFGYWHECPAVNAAPEIRTRRLQESDEFVIIGNHALWQFCSYQTAVDIARTERDDPMIAAQKLRDFAISYGAEGNVMVMVVNVSDLFLGKEGHHHHHH
MGSDKIHHHHHHMMNVLRDGCSERGTARVGKHHDLKTVRWYVLTLPTTGVARRDKISPAKSLDAELSRRKRRGETLFEYFAPSYVEVRKVDGKMVNTKRPLLFNYVFIRSSVEEIFQMKRTLPLYNFLPRVSSGGMTHFPYLSDSEMGNLRWVAESYSNELPVYVPDSNRLLKGDRVRITSGYFTGMEAEVVIQPGGGHKDVMARILDCMWVPLLEVKPGEYELIELNTKGKHAYTHLDNDRLREGLHDALGRYHTSGSVAEEDTRLACEVLRSYGSLRAETDVMRCKIYSLLLSAYKLLGDEEEFTRLHDTMRGMLPVVKAPQSRALLLVTLYGCTDSALYRQMAHEVVDPWRGESSPKKSKLSLIRRLDDCDRWLRHNE
MGSDKIHHHHHHMGERTEDYRYVKTQHKIYTALIALLKKRAFDDITVRDLCQAAQVSRSGFYLHFVDKYDLVDSYGRDLVKMGMRLFYANRGNGLETLYTELLTLINEQGDLITLLLSRKGSVEIQNQIKNQLRQNAADNILPYYGIKNQSPVAQRYLIAMTTGAVLSILQEWLDSGKQESPAELVAVMQEQVMPTLQRSQFRL
MKRTKKEFTPYNEYHDRPFELKWATAFALGELQEGIEASDEYSKRAFERLPQQTTEEIEEYLEQSLKNNQVLEIQLNTLDDFGRVQPPIVGVFEGMSSMEYVKVGHTHILFEEIRHIKSHEFTKWSSLD
MSTNYEAIIIGAGQAGLAAAHELSRRGFTPGKDFLVLDSNDGPGGAWRHRWDSLTLGKAHGIADLPGLPMNRPDPKTPASTLVAGYYGAYENEFSFAVVRPVKVSRVEPTSEDPSSPLRVSSDDGREWITRMVLNATGTWTNPYVPYIPGIDKFQGKQLHTVNYRKAEDFKGKKVLVVGGGLSAVQFLLELEGLAETTWATRRPPNFTQREFDAGWGIAVERAVRERTFNGKAPASVVRTTGIPQIPDYLAGVDRGLIVSRGMFEEITPTGVVFGEPPAERSEGLGPSAGTTLAVPESWKPYPAGTHLDVDVIFWNTGFRAALRHLAPMKLRGQGRGIELIDEVSPASDARVLLVGYGSTASTVGATRAGRVAGRVAAKRLLVDVSPHVNLEHHHHHH
MAHHHHHHMRNVVQKYLCRKNNFPGFCSKRNVCTLSQKKNLSAYKIYTDGLLHSEFSTELKTTNEVNRLPIFRVLDTEGNLLDGHNAPFEEEEIVKLYKQMVEFSIWDEIFYGIQRQGRISFYIVNDGEEGIQFGLGKVLTPDDHLYCQYRETGILLSRGFDYADIINQLFGNKYDEGKGRQMCICYTSKKLNIHTITTPLASQLSHAAGCGYALKLKNEKAVAATFCGDGSSSEGDFYAALNFAAVRESQTMFICKNNLYAISTSIKDQYRGDGVAPRALALGIESVRVDGNDLFATYLAAKKMREICTEESKPVFMEFMAYRYGHHSTSDDSSLYRPKEENDAWKKEGVHPISRLFLYLKNKKLYTDKDDELHRKAIKEKVLKELKKHESIKRYNIVGGLFENVYHEEDWNLKEQRESFEQFFKQHKGCYDTSKFEG
MSDSPIGSSQQVEPEHRTPDLMDIDPLIANLKALHEETRSDDDDDGQPSTSAKRKDSRADGIVIHQKKYSDPGRFLWIWLLGVRVPALSIDGEPHLPIEILDDMLTKKDKKDQMSFQNLLRYKNVYIRMASPSQFRAVMEKSKECENLNITSLSLMSRSDIERIMGELRLESMLTLAEHDNWDISDRVHVVHVNFIDYCSEWLESDDLEEDVMQSGTHGYWYKNRRNMRCIECQHCEGKFTPTDFIMHHHYPIKPSGFVHTGCNSFQWIRLIEVFDKSNENLEAWNKFVLNSHRAGKREYDEAAPHQAPPKRPAMETPVPVAADNGWEADEEEEGEEIVDRDADIEKCKLRNKKKMENLHIADFLGPSGSKGLKPRNKFEAVIIEQLNKMDDAALEALFLKSPEEYNLWVKESDFTHKVVTQQQEWKAKMKDPNFKSRASANFDVSKGEFDNMRHFDNASKATRQEIQQLAEQFANLDRDAKLLTPMEFVLREHALLKNVSADAIRVLCNRPPLPPLPPPPPPPKPKPAPVQPISLGNINFVALAQQLIASGIKLPLPIVTPPVVSTPAPVITPIPAALPISPNSDFLKQQLSTAMSSPALLSLYPKLTAGAYEQLAQFIKTTTVKN
TITNILLVGVGGQGILLASEILSEAFMLAGFDVKKSEIHGMSQRGGSVVSHVRYGKEVHSPIVPEGEGDILFGFELMETYRYLPLLRKGGTVVANDLRISPPSVLLGQASYPDDLPDRIRALFPDFLLVDGQHLAAEAGNVRAANTVLLGAVAKQLDIPDECWHKALERMVPPKALDVNRKAFQLGRAL

Soluble on expression in E. coli, soluble:
SLRETVFRNARVLDVARGAYDDGQSVVVRDGVIVAVATDAHRLAGADAREIDVAGRVLMPGLCDAHVHVTAFTPDFALLGRTAPSYVTVRAQDILQGMIGRGFTTVRDAGGADWGLAKALAEGAIVGPRLLYCGHALSQTGGHADMRGPGQHNLDQCLCCAGLGQVCDGVPEMRRACREEIRKGATHLKLMVSGGVASPTDRIDSTQFALDELRAACEEAEAANIPVMAHAYTGRAAVRALEAGVSSIEHGNLIDQAAIDTLLRLDRWLVPTLATYHALAAEGVEAGMPAELNKKVYTVLEAGTEALRMAAKAGVKLVYGSDLLGTMQRHQLTEFAIRAVVQDPIDILRAATTQAAALFRMEDRIGAVRAGYLADLLIVDGDVLHSVAPWSAPEETIKMVMKDGEILVSR
SQPLLDRSIPDFTAFTTVDDWLSAIKMVQYRDSFLTAGFTSLQLVTQMTSEDLLRIGITLAGHQKKILNSIHSMRVQISQSPTAMA
MSSTQEASVTDLPVKRPREAEEDNNGGAMETENGGGEIKEPSCMSSIIPGWFSEISPMWPGEAHSLKVEKILFQGKSDYQDVIVFQSATYGKVLVLDGVIQLTERDECAYQEMITHLPLCSISNPKKVLVIGGGDGGVLREVARHSSVEQIDICEIDKMVVDVAKQYFPNVAVGYEDPRVNLIIGDGVAFLKNAAEGTYDAVIVDSSDPIGPAKELFEKPFFESVNRALRPGGVVCTQAESLWLHMDIIEDIVSNCRDIFKGSVNYAWTSVPTYPSGVIGFMLCSSEGPQVDFKKPVSLIDTDESSIKSHCPLKYYNAEIHSAAFCLPSFAKKVIDSKAN
MSLKEKLVAIVGPTAVGKTKTSVMLAKRLNGEVISGDSMQVYRGMDIGTAKITAEEMDGVPHHLIDIKDPSESFSVADFQDLATPLITEIHERGRLPFLVGGTGLYVNAVIHQFNLGDIRADEDYRHELEAFVNSYGVQALHDKLSKIDPKAAAAIHPNNYRRVIRALEIIKLTGKTVTEQARHEEETPSPYNLVMIGLTMERDVLYDRINRRVDQMVEEGLIDEAKKLYDRGIRDCQSVQAIGYKEMYDYLDGNVTLEEAIDTLKRNSRRYAKRQLTWFRNKANVTWFDMTDVDFDKKIMEIHNFIAGKLEEKSKEGHHHHHH
MPPRPRMLAAAITAALALGAQAVPAAAADGPAGDSTATTSRGVEIPAFYTPPSELPAADGTLIRHEPLPLALSLPGIDGPLPGRATRLMYKSTDANGEAVAVTGAYVEPAAKWRGDGPRPLVAVAPGTMGQGDQCAASMALEHPLQLNGQTVSVGYEDLSVYRLLLRGVAVVVTDYVGLGTTDRLHTYVNRVDGAHAVLDAVRAARSLDSASVTSDSRVGLFGYSQGGGATAAAAELQPSYAPDVQLAGTYAGAPPADLTEVTKAIDGSDLAGALGWSLNGFLQTEPALRPIADRYINEAGQEALKDLSTMCVGDALFGYGGDSSTDWTRTGQSISDVIRAEPALQSFLAEQRIGSTAPGSPVRVATGVSDDLVPHGQARRLAVDWCGKGGKVTYVPVLIPGVGSGLLNHFAPLLADQGNAIAWLTDRLSGEPAGSNCWSMPVQPLEHHHHHH
MSLRGLRGRSFTIGVLLIDIRNPFLPEVIAGVNEVLGPSHYQAMIGVSDARVQLETSLIESMIDYKMDGLILVAPRLPSEILATFAVQIPIVAVGYHDASATAFDTVNAE
MNNSAFTFQTLHPDTIMDALFEHGIRVDSGLTPLNSYENRVYQFQDEDRRRFVVKFYRPERWTADQILEEHQFALQLVNDEVPVAAPVAFNGQTLLNHQGFYFAVFPSVGGRQFEADNIDQMEAVGRYLGRMHQTGRKQLFIHRPTIGLNEYLIEPRKLFEDATLIPSGLKAAFLKATDELIAAVTAHWREDFTVLRLHGDCHAGNILWRDGPMFVDLDDARNGPAVQDLWMLLNGDKAEQRMQLETIIEAYEEFSEFDTAEIGLIEPLRAMRLVYYLAWLMRRWADPAFPKNFPWLTGEDYWLRQTATFIEQAKVLQEPPLQLTPMY
